Source: patent US20250051476A1 (ABDERA THERAPEUTICS, published 2025)

B1: Clone 24 VHH-Fc with H435Q Fc (Fc fusion)
chain: QVQYVESGGGLVQPGGSLRLSCAASGFTFSSYRINWYRQPPGKGRELVGSITDTGSTNYADSVKGRFTISRDNAKNTVYLQMSSLKPEDTAVYYCRAPTIAAYWGQGTQVTVSSAPELLGGPSVFLFPPKPKDTLMISRTPEVTCVVVDVSHEDPEVKFNWYVDGVEVHNAKTKPREEQYNSTYRVVSVLTVLHQDWLNGKEYKCKVSNKALPAPIEKTISKAKGQPREPQVYTLPPSREEMTKNQVSLTCLVKGFYPSDIAVEWESNGQPENNYKTTPPVLDSDGSFFLYSKLTVDKSRWQQGNVFSCSVMHEALHNQYTQKSLSLSPG
B2: Clone 100 VHH-Fc with H435Q Fc (Fc fusion)
chain: QVQLVESGGGSVQPGGSLRLSCAASGIVFNSDVMGWYRQVPGKPRELVATITGGGSTNYATSVKGRFTISRDNAKNTVYLQMNSLRPEDTAVYYCNGRRGDSMLAFWAQGTQVTVSSAPELLGGPSVFLFPPKPKDTLMISRTPEVTCVVVDVSHEDPEVKFNWYVDGVEVHNAKTKPREEQYNSTYRVVSVLTVLHQDWLNGKEYKCKVSNKALPAPIEKTISKAKGQPREPQVYTLPPSREEMTKNQVSLTCLVKGFYPSDIAVEWESNGQPENNYKTTPPVLDSDGSFFLYSKLTVDKSRWQQGNVFSCSVMHEALHNQYTQKSLSLSPG
B3: 126_zu1 Conjugate (Fc fusion)
chain: QVQLVESGGGLVQPGGSLRLSCAASGITFSMYSMSWFRQAPGQGLEAVAATTTFGSTNYADSVKGRFTISRDNSKNTLYLQMNSLRAEDTAVYYCAARFTSEEYWGQGTLVTVSSEPKSSDKTHTCPPCPAPEAEGAPSVFLFPPKPKDTLMISRTPEVTCVVVDVSHEDPEVKFNWYVDGVEVHNAKTKPREEQYNSTYRVVSVLTVLHQDWLNGKEYKCKVSNKALPSSIEKTISKAKGQPREPQVYTLPPSREEMTKNQVSLTCLVKGFYPSDIAVEWESNGQPENNYKTTPPVLDSDGSFFLYSKLTVDKSRWQQGNVFSCSVMHEALHNQYTQKSLSLSPG
modifications: conjugated to p-SCN-Bn-DOTA, chelator-antibody ratio of 3-5 (lysine-based conjugation)
B4: 126_zu2 Conjugate (Fc fusion)
chain: QVQLVESGGGLVQPGGSLRLSCAASGITFSMYSMSWFRQAPGQGLELVAATTTFGSTNYADSVKGRFTISRDNSKNTLYLQMNSLRAEDTAVYYCAARFTSEEYWGQGTLVTVSSEPKSSDKTHTCPPCPAPEAEGAPSVFLFPPKPKDTLMISRTPEVTCVVVDVSHEDPEVKFNWYVDGVEVHNAKTKPREEQYNSTYRVVSVLTVLHQDWLNGKEYKCKVSNKALPSSIEKTISKAKGQPREPQVYTLPPSREEMTKNQVSLTCLVKGFYPSDIAVEWESNGQPENNYKTTPPVLDSDGSFFLYSKLTVDKSRWQQGNVFSCSVMHEALHNQYTQKSLSLSPG
modifications: conjugated to p-SCN-Bn-DOTA, chelator-antibody ratio of 3-5 (lysine-based conjugation)
B5: 186_zu2 (Fc fusion)
chain: QVQLVESGGGLVQPGGSLRLSCAASGFDFSTYTVNWFRQAPGQGLEKVARISSTGTTTNYANSAKGRFTISRDNSKNTLYLQMNSLRAEDTAVYYCAAERFDSNYWGQGTLVTVSSEPKSSDKTHTCPPCPAPEAEGAPSVFLFPPKPKDTLMISRTPEVTCVVVDVSHEDPEVKFNWYVDGVEVHNAKTKPREEQYNSTYRVVSVLTVLHQDWLNGKEYKCKVSNKALPSSIEKTISKAKGQPREPQVYTLPPSREEMTKNQVSLTCLVKGFYPSDIAVEWESNGQPENNYKTTPPVLDSDGSFFLYSKLTVDKSRWQQGNVFSCSVMHEALHNQYTQKSLSLSPG
notes: Humanized VHH-Fc
B6: 186_zu2 conjugated to p-SCN-Bn-DOTA (Fc fusion)
chain: QVQLVESGGGLVQPGGSLRLSCAASGFDFSTYTVNWFRQAPGQGLEKVARISSTGTTTNYANSAKGRFTISRDNSKNTLYLQMNSLRAEDTAVYYCAAERFDSNYWGQGTLVTVSSEPKSSDKTHTCPPCPAPEAEGAPSVFLFPPKPKDTLMISRTPEVTCVVVDVSHEDPEVKFNWYVDGVEVHNAKTKPREEQYNSTYRVVSVLTVLHQDWLNGKEYKCKVSNKALPSSIEKTISKAKGQPREPQVYTLPPSREEMTKNQVSLTCLVKGFYPSDIAVEWESNGQPENNYKTTPPVLDSDGSFFLYSKLTVDKSRWQQGNVFSCSVMHEALHNQYTQKSLSLSPG
modifications: conjugated to p-SCN-Bn-DOTA, chelator-antibody ratio of 3-5; lysine in FW2 (printed position 52)
notes: Humanized VHHFc conjugate
B7: 186_zu1 conjugated to p-SCN-Bn-DOTA (Fc fusion)
chain: QVQLVESGGGLVQPGGSLRLSCAASGFDFSTYTVNWFRQAPGQGLEAVARISSTGTTTNYANSAKGRFTISRDNSKNTLYLQMNSLRAEDTAVYYCAAERFDSNYWGQGTLVTVSSEPKSSDKTHTCPPCPAPEAEGAPSVFLFPPKPKDTLMISRTPEVTCVVVDVSHEDPEVKFNWYVDGVEVHNAKTKPREEQYNSTYRVVSVLTVLHQDWLNGKEYKCKVSNKALPSSIEKTISKAKGQPREPQVYTLPPSREEMTKNQVSLTCLVKGFYPSDIAVEWESNGQPENNYKTTPPVLDSDGSFFLYSKLTVDKSRWQQGNVFSCSVMHEALHNQYTQKSLSLSPG
modifications: conjugated to p-SCN-Bn-DOTA, chelator-antibody ratio of 3-5
notes: Humanized VHHFc conjugate
B8: 126 (Fc fusion)
chain: QVQLVESGGGMVQPGGSLRLSCAASGITFSMYSMSWYRQPPGKQRELVAATTTFGSTNYADSVKGRFTISRDNAKNTVYLQMNSLKPEDTAVYLCNARFTSEEYWGQGTQVTVSSEPKSSDKTHTCPPCPAPEAEGAPSVFLFPPKPKDTLMISRTPEVTCVVVDVSHEDPEVKFNWYVDGVEVHNAKTKPREEQYNSTYRVVSVLTVLHQDWLNGKEYKCKVSNKALPSSIEKTISKAKGQPREPQVYTLPPSREEMTKNQVSLTCLVKGFYPSDIAVEWESNGQPENNYKTTPPVLDSDGSFFLYSKLTVDKSRWQQGNVFSCSVMHEALHNQYTQKSLSLSPG
notes: Parental camelid VHH-Fc
B9: 126 Conjugate (Fc fusion)
chain: QVQLVESGGGMVQPGGSLRLSCAASGITFSMYSMSWYRQPPGKQRELVAATTTFGSTNYADSVKGRFTISRDNAKNTVYLQMNSLKPEDTAVYLCNARFTSEEYWGQGTQVTVSSEPKSSDKTHTCPPCPAPEAEGAPSVFLFPPKPKDTLMISRTPEVTCVVVDVSHEDPEVKFNWYVDGVEVHNAKTKPREEQYNSTYRVVSVLTVLHQDWLNGKEYKCKVSNKALPSSIEKTISKAKGQPREPQVYTLPPSREEMTKNQVSLTCLVKGFYPSDIAVEWESNGQPENNYKTTPPVLDSDGSFFLYSKLTVDKSRWQQGNVFSCSVMHEALHNQYTQKSLSLSPG
modifications: conjugated to p-SCN-Bn-DOTA, chelator-antibody ratio of 3-5 (lysine-based conjugation)
B10: Clone 126 VHH-Fc with H435Q Fc (Fc fusion)
chain: QVQLVESGGGMVQPGGSLRLSCAASGITFSMYSMSWYRQPPGKQRELVAATTTFGSTNYADSVKGRFTISRDNAKNTVYLQMNSLKPEDTAVYLCNARFTSEEYWGQGTQVTVSSAPELLGGPSVFLFPPKPKDTLMISRTPEVTCVVVDVSHEDPEVKFNWYVDGVEVHNAKTKPREEQYNSTYRVVSVLTVLHQDWLNGKEYKCKVSNKALPAPIEKTISKAKGQPREPQVYTLPPSREEMTKNQVSLTCLVKGFYPSDIAVEWESNGQPENNYKTTPPVLDSDGSFFLYSKLTVDKSRWQQGNVFSCSVMHEALHNQYTQKSLSLSPG
B11: Clone 107 VHH-Fc with H435Q Fc (Fc fusion)
chain: QVQLVESGGGLVQAGDSLRLSCVASDRTFSSYAVGWFRQAPGKEREFVAAISWNGGRTLYTDSVTGRFTISRDNAKSTVYLQMNGLKPEDTAVYYCAARPAAPTRRLEYDYWGQGTQVTVSSAPELLGGPSVFLFPPKPKDTLMISRTPEVTCVVVDVSHEDPEVKFNWYVDGVEVHNAKTKPREEQYNSTYRVVSVLTVLHQDWLNGKEYKCKVSNKALPAPIEKTISKAKGQPREPQVYTLPPSREEMTKNQVSLTCLVKGFYPSDIAVEWESNGQPENNYKTTPPVLDSDGSFFLYSKLTVDKSRWQQGNVFSCSVMHEALHNQYTQKSLSLSPG
B12: 107_zu2 Conjugate (Fc fusion)
chain: QVQLVESGGGLVQPGGSLRLSCAASDRTFSSYAVGWFRQAPGQGLEFVAAISWNGGRTLYTDSVTGRFTISRDNSKNTLYLQMNSLRAEDTAVYYCAARPAAPTRRLEYDYWGQGTLVTVSSEPKSSDKTHTCPPCPAPEAEGAPSVFLFPPKPKDTLMISRTPEVTCVVVDVSHEDPEVKFNWYVDGVEVHNAKTKPREEQYNSTYRVVSVLTVLHQDWLNGKEYKCKVSNKALPSSIEKTISKAKGQPREPQVYTLPPSREEMTKNQVSLTCLVKGFYPSDIAVEWESNGQPENNYKTTPPVLDSDGSFFLYSKLTVDKSRWQQGNVFSCSVMHEALHNQYTQKSLSLSPG
modifications: conjugated to p-SCN-Bn-DOTA, chelator-antibody ratio of 3-5 (lysine-based conjugation)

What was measured:
human DLL3 on cells = target: T1, human DLL3 on cells (human, UniProt Q9NYJ7 27-618); test: cell-based or functional assay
T1 sequence (looked up): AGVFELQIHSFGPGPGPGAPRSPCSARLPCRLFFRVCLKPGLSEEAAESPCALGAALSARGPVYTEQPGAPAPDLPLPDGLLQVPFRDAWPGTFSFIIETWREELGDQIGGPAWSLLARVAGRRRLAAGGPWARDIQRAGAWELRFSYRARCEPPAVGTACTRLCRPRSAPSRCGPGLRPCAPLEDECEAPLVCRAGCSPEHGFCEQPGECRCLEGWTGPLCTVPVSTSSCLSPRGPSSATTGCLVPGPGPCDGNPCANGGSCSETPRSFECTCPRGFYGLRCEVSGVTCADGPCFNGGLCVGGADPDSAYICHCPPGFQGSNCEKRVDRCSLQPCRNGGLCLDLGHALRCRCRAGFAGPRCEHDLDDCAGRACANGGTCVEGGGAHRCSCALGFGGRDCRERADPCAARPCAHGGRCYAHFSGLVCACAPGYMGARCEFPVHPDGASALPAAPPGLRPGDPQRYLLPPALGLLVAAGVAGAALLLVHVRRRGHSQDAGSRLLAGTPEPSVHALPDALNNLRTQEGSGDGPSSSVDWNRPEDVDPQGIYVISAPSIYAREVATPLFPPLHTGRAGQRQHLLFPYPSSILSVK

[1] = target: T2, DLL3 on cells (SHP-77, NCI-H82, HEK-DLL3, membrane proteome array cells) (human, UniProt Q9NYJ7 27-618); test: flow cytometry on SHP-77 cells, Geomeans RL1-H; p-SCN-Bn-DOTA conjugate against the unconjugated VHHFc
T2 construct: whole, on cells; also called hDLL3
T2 sequence (looked up): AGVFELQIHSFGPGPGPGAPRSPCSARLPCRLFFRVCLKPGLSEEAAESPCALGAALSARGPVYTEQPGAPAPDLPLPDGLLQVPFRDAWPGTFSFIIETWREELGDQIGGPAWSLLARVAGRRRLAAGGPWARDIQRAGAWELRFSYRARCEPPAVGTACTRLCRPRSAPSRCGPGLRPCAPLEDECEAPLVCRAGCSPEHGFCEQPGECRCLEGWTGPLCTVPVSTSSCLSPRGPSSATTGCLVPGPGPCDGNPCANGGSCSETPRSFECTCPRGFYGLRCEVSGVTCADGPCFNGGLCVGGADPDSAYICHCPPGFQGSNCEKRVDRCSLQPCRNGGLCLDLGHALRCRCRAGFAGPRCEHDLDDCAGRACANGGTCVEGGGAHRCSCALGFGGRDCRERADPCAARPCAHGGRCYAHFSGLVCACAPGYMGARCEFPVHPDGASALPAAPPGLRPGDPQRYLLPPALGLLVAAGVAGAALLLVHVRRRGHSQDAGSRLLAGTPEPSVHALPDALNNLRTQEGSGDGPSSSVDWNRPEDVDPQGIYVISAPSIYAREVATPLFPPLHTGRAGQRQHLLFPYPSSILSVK

mouse DLL3 = target: T3, mouse DLL3 (mouse, UniProt O88516 25-477, limits assumed); test: ELISA
T3 construct: also called mDLL3; murine DLL3
T3 sequence (looked up): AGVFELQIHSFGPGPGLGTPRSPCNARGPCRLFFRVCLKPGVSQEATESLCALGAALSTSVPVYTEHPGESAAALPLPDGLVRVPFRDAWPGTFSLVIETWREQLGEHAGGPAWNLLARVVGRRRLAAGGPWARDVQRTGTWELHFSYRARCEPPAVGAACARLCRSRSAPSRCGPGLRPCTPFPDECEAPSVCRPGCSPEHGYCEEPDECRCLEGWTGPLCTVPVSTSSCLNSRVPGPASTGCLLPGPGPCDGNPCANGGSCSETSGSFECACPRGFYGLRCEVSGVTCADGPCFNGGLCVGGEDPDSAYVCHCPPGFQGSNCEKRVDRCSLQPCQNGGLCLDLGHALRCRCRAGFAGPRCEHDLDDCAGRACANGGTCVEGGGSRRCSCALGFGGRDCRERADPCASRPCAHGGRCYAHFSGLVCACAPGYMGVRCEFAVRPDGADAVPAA

[2] = target: T2, DLL3 on cells (SHP-77, NCI-H82, …); test: flow cytometry on SHP-77 cells, Geomeans RL1-H
[3] = target: T2, DLL3 on cells (SHP-77, NCI-H82, …); test: flow cytometry on SHP-77 cells, Geomeans RL1-H; remark: listed apart in the source

Binder	H435Q-Fc SHP-77 Internalization FOI (human DLL3 on cells)	EC50 (read off the curve) [1]	also measured
B1	1.19 FOI		
B2	1.19 FOI		
B3			binding result [1]: binds
B4		~100 pM	
B5			binding result (mouse DLL3): no binding; EC50 (read off the curve) [2]: ~100 pM
B6			binding result [1]: binds
B7		~300 pM	
B8			EC50 (read off the curve) [3]: ~100 pM; EC50 (read off the curve) [2]: ~100 pM
B9		~200 pM	
B10	1.19 FOI		
B11	1.27 FOI		
B12		~100 pM	
